Biological target: murine CIZ1 C-terminal fragment C181 (terminal 181 amino-acids) (mouse)
Assay: SEC-MALS

stoichiometry N: 2
Substance: murine CIZ1 C-terminal fragment C181 (terminal 181 amino-acids) (domain or fragment)

From article doi:10.1101/2023.09.22.558821
